According to paper PMC6221358, “The Zn2Cys6-type transcription factor LeuB cross-links regulation of leucine biosynthesis and iron acquisition in Aspergillus fumigatus”:

T1: LeuB DBD (LeuBM50-125YS, SPR) (Aspergillus fumigatus, UniProt Q4WI12 224-299)
T1 sequence: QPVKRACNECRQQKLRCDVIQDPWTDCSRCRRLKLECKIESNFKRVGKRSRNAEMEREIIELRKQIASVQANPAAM

B1: hapX 16 bp SPR duplex (dsDNA)
DNA 1: CCGCCGAAATCGGGAA
DNA 2: TTCCCGATTTCGGCGG
B2: leuA 16 bp SPR duplex (dsDNA)
DNA 1: GGACCGATGTCGGATC
DNA 2: GATCCGACATCGGTCC

Target: T1, LeuB DBD (LeuBM50-125YS, SPR)
Assay: SPR; 10 uM ZnCl2; 30 ug/ml poly(dAdT); SPR: 10 mM HEPES pH 7.4, 150 mM NaCl, 0.005% P20, 5 mM beta-mercaptoethanol, 10 uM ZnCl2, 25 C, LeuB DBD 6.25-400 nM with 30 ug/ml poly(dAdT); EMSA: as previously described (not given), 1 ug salmon sperm DNA as nonspecific or 100-fold cold probe as competitor
Details: protein: recombinant; tags: none stated; chain copies: 2; label: biotin; 16 bp duplex

| Binder | Kd [nM] |
| --- | --- |
| B1 | 160 |
| B2 | 95.2 |
